Reference: US20180282719A1 (published 2018)
Like-named read-outs stand apart in the source and are kept apart here.

T1: recombinant soluble human IL-6 receptor (SR344) (human, UniProt P08887 20-344, biotinylated (sites not given) where immobilized via streptavidin or used in phage ELISA)
T1 construct: also called soluble IL-6 receptor; membrane-type IL-6 receptor (when biotinylated and immobilized on the chip)
T1 sequence (looked up): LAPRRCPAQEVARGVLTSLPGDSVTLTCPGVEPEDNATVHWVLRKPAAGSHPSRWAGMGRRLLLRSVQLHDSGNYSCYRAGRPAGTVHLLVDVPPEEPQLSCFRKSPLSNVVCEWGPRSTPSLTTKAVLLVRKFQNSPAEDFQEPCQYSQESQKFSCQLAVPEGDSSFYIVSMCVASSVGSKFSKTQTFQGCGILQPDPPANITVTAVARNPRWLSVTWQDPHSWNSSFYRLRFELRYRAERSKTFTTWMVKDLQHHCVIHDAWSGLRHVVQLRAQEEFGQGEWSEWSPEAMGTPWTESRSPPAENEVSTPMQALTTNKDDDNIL

B1: Fv4-IgG1 (antibody)
heavy: not shown
light: DIQMTQSPSSLSASVGDSVTITCQASTDISSHLNWYQQKPGKAPELLIYYGSHLLSGVPSRFSGSGSGTDFTFTISSLEAEDAATYYCGQGNRLPYTFGQGTKVEIERTVAAPSVFIFPPSDEQLKSGTASVVCLLNNFYPREAKVQWKVDNALQSGNSQESVTEQDSKDSTYSLSSTLTLSKADYEKHKVYACEVTHQGLSSPVTKSFNRGEC
notes: VH3-IgG1 / VL3-CK
B2: humanized PM1 antibody (wild type, WT) (antibody, human IgG1, kappa, V domains shown)
VH: QVQLQESGPGLVRPSQTLSLTCTVSGYSITSDHAWSWVRQPPGRGLEWIGYISYSGITTYNPSLKSRVTMLRDTSKNQFSLRLSSVTAADTAVYYCARSLARTTAMDYWGQGSLVTVSS
VL: DIQMTQSPSSLSASVGDRVTITCRASQDISSYLNWYQQKPGKAPKLLIYYTSRLHSGVPSRFSGSGSGTDFTFTISSLQPEDIATYYCQQGNTLPYTFGQGTKVEIKR
notes: IgG1; also called WT-IgG1; wild type humanized anti-IL-6 receptor antibody
B3: H3pI/L73 (antibody, IgG1, V domains shown)
VH: QVQLQESGPGLVKPSETLSLTCAVSGHSISHDHAHSWVRQPPGEGLEWIGYISYSGITNYNPSLKGRVTISRDTSKNQFSLKLSSVTAADTAAYYCARSLARTTAMDYWGEGTLVTVSS
VL: DIQMTQSPSSLSASVGDSVTITCQASQHISSHLNWYQQKPGKAPELLIYYGSHLHSGVPSRFSGSGSGTDFTFTISSLEAEDAATYYCGQGNRLPYTFGQGTKVEIE
notes: tested as IgG1; also called H3pI/L73-IgG1; H3pl/L73

Legend:
[1] = target: T1, recombinant soluble human IL-6 receptor …; assay: SPR Biacore T100, antibody captured by anti-IgG gamma chain F(ab)2, SR344 analyte, pH 7.4, 37 C
In short: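 Antibodies were captured on an anti-IgG γ-chain F(ab)₂ chip, with SR344 at 9.8–40 nM injected in 10 mM MES pH 7.4, 150 mM NaCl, 0.05% Tween 20, at 37° C. Real-time association/dissociation gave ka and kd, from which KD was calculated.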

[2] = target: T1, recombinant soluble human IL-6 receptor …; assay: SPR Biacore T100, biotinylated SR344 on streptavidin chip (model of membrane-type IL-6 receptor), antibody 0.25 ug/mL as analyte, bound at pH 7.4, dissociation at pH 7.4, 37 C
[3] = target: T1, recombinant soluble human IL-6 receptor …; assay: SPR Biacore T100, antibody captured by anti-IgG gamma chain F(ab)2, SR344 analyte, pH 7.4, 37 C; remark: listed apart in the source
Procedure: Kinetic analyses of antigen-antibody reactions at pH 7.4 were carried out on the four types of antibodies, i.e., the humanized PM1 antibody (wild type: WT), and […], H3pI/L73-IgG1, Fv2-IgG1, and Fv4-IgG1 constructed in Examples 2 and 10, by using a Biacore T100™ surface plasmon resonance system (GE Healthcare) (buffer: 10 mM MES (pH 7.4), 150 mM NaCl, 0.05% TWEEN® 20 (polyoxyethelene sorbitan monolaurate)). Each antibody was bound on a sensor chip on which an anti-IgG γ chain specific F(ab)₂ (Pierce) was immobilized by amine coupling, and then, SR344 adjusted to a concentration of 9.8 to 40 nM was injected thereto as an analyte. The association to and dissociation from SR344 were observed on a real-time basis for the pH-dependent-binding clones. All the measurements were carried out at 37° C. Association rate constants kₐ (1/Ms) and dissociation rate constants kd (1/s) were calculated using Biacore T100™ Evaluation Software (GE Healthcare), and dissociation constants KD (M) were calculated on the basis of those values (Table 7).

[4] = target: T1, recombinant soluble human IL-6 receptor …; assay: SPR Biacore T100, biotinylated SR344 on streptavidin chip (model of membrane-type IL-6 receptor), antibody 0.25 ug/mL as analyte, 37 C
Procedure: Binding to the membrane-type IL-6 receptor was evaluated by evaluating binding to the IL-6 receptor immobilized on a sensor chip. SR344 was biotinylated in accordance with a method known among persons with ordinary skill in the art, and the biotinylated SR344 was immobilized on the sensor chip via streptavidin using the affinity between streptavidin and biotin. All the measurements were carried out at 37° C. The mobile phase buffer was 10 mM MES (pH 5.8), 150 mM NaCl and 0.05% TWEEN® 20 (polyoxyethelene sorbitan monolaurate).
The pH-dependently-binding clones were injected under the condition of pH 7.4 to allow them to bind to SR344, and then, the pH-dependent dissociation of each clone at the pH of the mobile phase, pH 5.8, was observed. The results are shown in FIG. 21 (results for Fv1-M71, Fv1-M73, Fv3-M71, and Fv3-M73 are shown in FIG. 21, while results for other clones are shown in FIGS. 17 and 19). Analyses were carried out in the same manner as in Example 10 and the pH dependencies of the dissociation rate constants of all of the eleven types of clones are shown in Table 12.

Binder	Kd [1]	koff [1]	kon [1]	koff [2]	Kd [3]	koff [3]	kon [3]	kd (pH 5.8)/kd (pH 7.4) [4]
B1	1.4 nM	0.001 s⁻¹	720000 M⁻¹ s⁻¹	0.00047 s⁻¹	1.4 nM	0.001 s⁻¹	720000 M⁻¹ s⁻¹	5.56
B2	2.7 nM	0.0011 s⁻¹	400000 M⁻¹ s⁻¹	0.00025 s⁻¹	2.7 nM	0.0011 s⁻¹	400000 M⁻¹ s⁻¹	1
B3	1.4 nM	0.00059 s⁻¹	410000 M⁻¹ s⁻¹	0.00026 s⁻¹	1.4 nM	0.00059 s⁻¹	410000 M⁻¹ s⁻¹	2.59
